For the data set, the target named is recombinant anthrax protective antigen (rPA) (UniProt P13423 P13423:30-764). The data set can be described thus: ELONA. Particulars: tags: MW about 83 kDa; label: 5' biotin.
Sequence of recombinant anthrax protective antigen (rPA) (P13423 30-764, one chain of several): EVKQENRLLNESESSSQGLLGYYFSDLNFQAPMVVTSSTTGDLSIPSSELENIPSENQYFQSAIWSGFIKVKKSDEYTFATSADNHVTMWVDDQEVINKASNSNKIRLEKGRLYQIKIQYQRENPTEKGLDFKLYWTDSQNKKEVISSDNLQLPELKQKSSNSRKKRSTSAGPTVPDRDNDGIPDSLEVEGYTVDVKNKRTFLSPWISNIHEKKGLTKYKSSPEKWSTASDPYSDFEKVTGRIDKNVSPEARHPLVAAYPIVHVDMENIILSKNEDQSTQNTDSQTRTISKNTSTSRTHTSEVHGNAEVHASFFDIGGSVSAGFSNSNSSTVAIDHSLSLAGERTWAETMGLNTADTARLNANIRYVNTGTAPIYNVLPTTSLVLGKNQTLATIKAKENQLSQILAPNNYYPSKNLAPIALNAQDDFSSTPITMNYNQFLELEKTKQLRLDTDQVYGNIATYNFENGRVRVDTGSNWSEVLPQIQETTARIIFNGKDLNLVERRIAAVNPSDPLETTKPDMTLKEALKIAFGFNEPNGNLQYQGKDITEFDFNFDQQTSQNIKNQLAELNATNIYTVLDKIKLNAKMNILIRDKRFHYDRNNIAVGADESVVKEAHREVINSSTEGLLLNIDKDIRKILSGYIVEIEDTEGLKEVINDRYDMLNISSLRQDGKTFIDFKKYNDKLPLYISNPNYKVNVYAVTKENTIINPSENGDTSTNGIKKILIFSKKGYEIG

B1: rPA DNA aptamer, biotinylated (ssDNA)
DNA: TACGACTCACTATAGGGATCCCGAGCTGCAATGGAGTGATTACTAGGGATGTGCGAGGCGCCGAATTCCCTTTAGTGAGGGTT
Regarding B1, the binding result was “binds”.
